{"source": "patent US20160297884A1", "about": "(Pfizer, published 2016)", "binders": {"B1": {"name": "L1.GDF/L3.KW/H3.AL (antibody, V domains shown)", "VH": "EVQLLESGGGLVQPGGSLRLSCAASGFTFGSYAMTWVRQAPGKGLEWVSAISGSGGNTFYADSVKGRFTISRDNSKNTLYLQMNSLRAEDTAVYYCARVSPIAALMDYWGQGTLVTVSS", "VL": "EIVLTQSPGTLSLSPGERATLSCRASQSVGDFYLAWYQQKPGQAPRLLIYGASSRATGIPDRFSGSGSGTDFTLTISRLEPEDFAVYYCKHYGWPPSFTFGQGTKVEIK", "notes": "IgG"}, "B2": {"name": "L1.GDF/L3.KW/H3.AQ (antibody, V domains shown)", "VH": "B1 VH with L105Q", "VL": "B1 VL", "notes": "IgG"}, "B3": {"name": "L1.LGF/L3.NY/P6E01 (antibody, V domains shown)", "VH": "B1 VH with A104S, L105G", "VL": "B1 VL with V29L, D31S, K90Q, G93N, W94Y", "notes": "IgG"}, "B4": {"name": "L1.GDF/L3.PY/H3.AQ (antibody, V domains shown)", "VH": "B1 VH with L105Q", "VL": "B1 VL with K90Q, G93P, W94Y", "notes": "IgG"}, "B5": {"name": "L1.LGF/L3.PY/H3.AQ (antibody, V domains shown)", "VH": "B1 VH with L105Q", "VL": "B1 VL with V29L, D31S, K90Q, G93P, W94Y", "notes": "IgG"}, "B6": {"name": "L1.LGF/L3.NY/H3.AL (antibody, V domains shown)", "VH": "B1 VH", "VL": "B1 VL with V29L, D31S, K90Q, G93N, W94Y", "notes": "IgG"}, "B7": {"name": "L1.GDF/L3.NY/H3.AQ (antibody, V domains shown)", "VH": "B1 VH with L105Q", "VL": "B1 VL with K90Q, G93N, W94Y", "notes": "IgG"}, "B8": {"name": "L1.GDF/L3.KW/H3.AP (antibody, V domains shown)", "VH": "B1 VH with L105P", "VL": "B1 VL", "notes": "IgG"}, "B9": {"name": "L1.LGF/L3.PY/H3.AP (antibody, V domains shown)", "VH": "B1 VH with L105P", "VL": "B1 VL with V29L, D31S, K90Q, G93P, W94Y", "notes": "IgG"}, "B10": {"name": "L1.GDF/L3.NY/P6E01 (antibody, V domains shown)", "VH": "B1 VH with A104S, L105G", "VL": "B1 VL with K90Q, G93N, W94Y", "notes": "IgG"}, "B11": {"name": "L1.LGF/L3.KW/H3.AQ (antibody, V domains shown)", "VH": "B1 VH with L105Q", "VL": "B1 VL with V29L, D31S", "notes": "IgG"}, "B12": {"name": "L1.LGF/L3.KW/H3.AP (antibody, V domains shown)", "VH": "B1 VH with L105P", "VL": "B1 VL with V29L, D31S", "notes": "IgG"}, "B13": {"name": "L1.LGF/L3.KW/P6E01 (antibody, V domains shown)", "VH": "B1 VH with A104S, L105G", "VL": "B1 VL with V29L, D31S", "notes": "IgG"}, "B14": {"name": "L1.LGF/L3.NY/H3.AQ (antibody, V domains shown)", "VH": "B1 VH with L105Q", "VL": "B1 VL with V29L, D31S, K90Q, G93N, W94Y", "notes": "IgG"}, "B15": {"name": "L3.KW/P6E01 (antibody, V domains shown)", "VH": "B1 VH with A104S, L105G", "VL": "B1 VL with G30S, D31S, F32S", "notes": "IgG"}, "B16": {"name": "L3.NY/P6E01 (antibody, V domains shown)", "VH": "B1 VH with A104S, L105G", "VL": "B1 VL with G30S, D31S, F32S, K90Q, G93N, W94Y", "notes": "IgG"}, "B17": {"name": "L1.LGF/L3.KW/H3.AL (antibody, V domains shown)", "VH": "B1 VH", "VL": "B1 VL with V29L, D31S", "notes": "IgG"}, "B18": {"name": "L1.LGF/L3.NY/H3.AP (antibody, V domains shown)", "VH": "B1 VH with L105P", "VL": "B1 VL with V29L, D31S, K90Q, G93N, W94Y", "notes": "IgG"}, "B19": {"name": "L1.GDF/L3.NY/H3.AP (antibody, V domains shown)", "VH": "B1 VH with L105P", "VL": "B1 VL with K90Q, G93N, W94Y", "notes": "IgG"}, "B20": {"name": "L1.GDF/L3.NY/H3.AL (antibody, V domains shown)", "VH": "B1 VH", "VL": "B1 VL with K90Q, G93N, W94Y", "notes": "IgG"}, "B21": {"name": "P6E01/H3.AQ (antibody, V domains shown)", "VH": "B1 VH with L105Q", "VL": "not shown", "notes": "IgG"}, "B22": {"name": "P6E01/P6E01 (antibody, V domains shown)", "VH": "B1 VH with A104S, L105G", "VL": "not shown", "notes": "IgG"}}, "note": "Where a chain is given by its changes, count along the chain named.", "data": [{"target": "T1, cynomolgus monkey BCMA (cynomolgus monkey, UniProt A0A2K5UD97 1-53)", "T1 construct": "Soluble analyte in SPR; construct not described; also called cyBCMA; Cyno BCMA", "T1 sequence (A0A2K5UD97 entry or part of it)": "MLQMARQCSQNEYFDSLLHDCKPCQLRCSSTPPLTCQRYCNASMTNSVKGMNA", "assay": "SPR, IgG immobilised, 25 C", "experimental": "(§1) All experiments were performed on a Bio-Rad Proteon XPR36 surface Plasmon resonance biosensor (Bio-Rad, Hercules, Calif.). […] The analysis temperature for the immobilization was 25° C. and the running buffer was HBS-T+(10 mM HEPES, 150 mM NaCl, 0.05% Tween-20, pH 7.4). Channels were activated in the analyte (horizontal) direction by injecting a mixture of 1 mM ECD and 0.25 mM NHS for 3 minutes at a flow rate of 30 μL/min. IgGs were immobilized on the activated spots by injecting them in the ligand (vertical) direction at 20 μg/mL in 10 mM Acetate pH 4.5 buffer for 1.5 minutes at […]. The activated surfaces were blocked by injecting 1M ethanolamine, pH 8.5 in the analyte direction for 3 minutes at 30 μL/min.\n(§2) The analysis temperature for the BCMA binding analysis was 37° C. or 25° C. in a running buffer of HBS-T+, supplemented with 1 mg/mL BSA. A kinetic titration method was employed for the interaction analysis as described in Abdiche, et al. Human BCMA (huBCMA) or cynomolgus monkey BCMA (cyBCMA) analyte was injected in the analyte direction using a series of injections from low to high concentration. The concentrations used were 0.08 nM, 0.4 nM, 2 nM, 10 nM and 50 nM (a 5-membered series, with a 5-fold dilution factor and top concentration of 50 nM). The association time for a given analyte dilution was two minutes. Immediately after the 50 nM BCMA injection, dissociation was monitored for 2 hours.\n(§3) The sensorgrams were double-referenced and fit to a 1:1 Langmuir with mass transport kinetic titration model in BIAevaluation Software version 4.1.1 (GE Lifesciences, Piscataway, N.J.).", "units": {"Kd": "nM", "T ½": "min", "koff": "s⁻¹", "kon": "M⁻¹ s⁻¹"}, "values": [{"binder": "B1", "Kd": 56.7, "T ½": 0.6, "koff": 0.018, "kon": 318000}, {"binder": "B2", "Kd": 7, "T ½": 2, "koff": 0.00565, "kon": 802000}, {"binder": "B3", "Kd": 11.4, "T ½": 1.1, "koff": 0.0105, "kon": 920000}, {"binder": "B4", "Kd": 10.7, "T ½": 0.7, "koff": 0.0166, "kon": "1.55e+06"}, {"binder": "B5", "Kd": 4.8, "T ½": 2.4, "koff": 0.00477, "kon": "1e+06"}, {"binder": "B6", "Kd": 23.2, "T ½": 0.8, "koff": 0.0148, "kon": 635000}, {"binder": "B7", "Kd": 1.2, "T ½": 8.5, "koff": 0.00136, "kon": "1.18e+06"}, {"binder": "B8", "Kd": 24.9, "T ½": 0.6, "koff": 0.0203, "kon": 814000}, {"binder": "B9", "Kd": 35.8, "T ½": 0.9, "koff": 0.013, "kon": 364000}, {"binder": "B10", "Kd": 6.4, "T ½": 1.5, "koff": 0.00767, "kon": "1.2e+06"}, {"binder": "B11", "Kd": 6.7, "T ½": 3.3, "koff": 0.00355, "kon": 527000}, {"binder": "B12", "Kd": 27.8, "T ½": 0.7, "koff": 0.0154, "kon": 554000}, {"binder": "B13", "Kd": 42.8, "T ½": 0.6, "koff": 0.0195, "kon": 455000}, {"binder": "B14", "Kd": 2, "T ½": 7.8, "koff": 0.00148, "kon": 751000}, {"binder": "B15", "Kd": 3.4, "T ½": 4.5, "koff": 0.00257, "kon": 763000}, {"binder": "B16", "Kd": 2.8, "T ½": 4, "koff": 0.00287, "kon": "1.01e+06"}, {"binder": "B17", "Kd": 41.8, "T ½": 1, "koff": 0.0121, "kon": 290000}, {"binder": "B18", "Kd": 6.7, "T ½": 2.1, "koff": 0.00557, "kon": 830000}, {"binder": "B19", "Kd": 5.2, "T ½": 1.6, "koff": 0.00702, "kon": "1.36e+06"}, {"binder": "B20", "Kd": 24.3, "T ½": 0.5, "koff": 0.0219, "kon": 900000}]}, {"target": "T2, Human BCMA (human, UniProt Q02223 1-54, limits assumed)", "T2 construct": "Soluble analyte in SPR; construct not described; also called huBCMA; B-cell maturation antigen", "T2 sequence (looked up)": "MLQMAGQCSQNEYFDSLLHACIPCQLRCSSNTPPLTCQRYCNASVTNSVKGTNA", "assay": "SPR, IgG immobilised, 25 C", "experimental": "as §1, §2, §3", "units": {"Kd": "nM", "T ½": "min", "koff": "s⁻¹", "kon": "M⁻¹ s⁻¹"}, "values": [{"binder": "B1", "Kd": 8.76, "T ½": 2.96, "koff": 0.0039, "kon": 445000}, {"binder": "B2", "Kd": 4.37, "T ½": 3.32, "koff": 0.00348, "kon": 797000}, {"binder": "B3", "Kd": 3.32, "T ½": 2.63, "koff": 0.0044, "kon": "1.33e+06"}, {"binder": "B21", "Kd": 0.41, "T ½": 33.5}, {"binder": "B4", "Kd": 9.49, "T ½": 0.86, "koff": 0.0135, "kon": "1.42e+06"}, {"binder": "B5", "Kd": 0.95, "T ½": 13, "koff": 0.000886, "kon": 931000}, {"binder": "B6", "Kd": 1.27, "T ½": 11.9, "koff": 0.00097, "kon": 763000}, {"binder": "B7", "Kd": 0.73, "T ½": 16, "koff": 0.000722, "kon": 984000}, {"binder": "B8", "Kd": 3.93, "T ½": 2.51, "koff": 0.00461, "kon": "1.17e+06"}, {"binder": "B9", "Kd": 2.12, "T ½": 11.9, "koff": 0.000969, "kon": 457000}, {"binder": "B10", "Kd": 3.7, "T ½": 1.95, "koff": 0.00592, "kon": "1.6e+06"}, {"binder": "B11", "Kd": 1.82, "T ½": 12.1, "koff": 0.000956, "kon": 524000}, {"binder": "B12", "Kd": 2.44, "T ½": 5.1, "koff": 0.00227, "kon": 928000}, {"binder": "B13", "Kd": 9.08, "T ½": 1.53, "koff": 0.00755, "kon": 831000}, {"binder": "B14", "Kd": 0.45, "T ½": 38.6, "koff": 0.000299, "kon": 666000}, {"binder": "B15", "Kd": 0.43, "T ½": 36.7, "koff": 0.000315, "kon": 740000}, {"binder": "B16", "Kd": 0.44, "T ½": 30.1, "koff": 0.000384, "kon": 876000}, {"binder": "B22", "Kd": 4, "T ½": 2.8}, {"binder": "B17", "Kd": 2.87, "T ½": 9.4, "koff": 0.00123, "kon": 428000}, {"binder": "B18", "Kd": 0.57, "T ½": 21.7, "koff": 0.000533, "kon": 936000}, {"binder": "B19", "Kd": 1, "T ½": 8.21, "koff": 0.00141, "kon": "1.41e+06"}, {"binder": "B20", "Kd": 4.44, "T ½": 2.87, "koff": 0.00403, "kon": 907000}]}]}
